Source: patent US20230310634A1, “ANTI-HUMAN VISTA ANTIBODIES AND USE THEREOF” (IMMUNEXT, INC., priority 2020, published 2023)

What was measured:
[1] = target: CD163 on human cells (human) (UniProt Q86VB7); assay: flow cytometry with quantification beads, CD14+ monocytes of human PBMC, n=5 donors (one outlier donor)
[2] = target: CD163 on human cells (human) (UniProt Q86VB7); assay: flow cytometry with quantification beads, CD14+ monocytes in human whole blood, n=3 donors
[3] = target: T1, human VISTA on cells (human) (UniProt Q9H7M9); assay: flow cytometry, AF488-labelled control antibody on human monocytes, MFI normalised to INX200 at 0 min
T1 sequence: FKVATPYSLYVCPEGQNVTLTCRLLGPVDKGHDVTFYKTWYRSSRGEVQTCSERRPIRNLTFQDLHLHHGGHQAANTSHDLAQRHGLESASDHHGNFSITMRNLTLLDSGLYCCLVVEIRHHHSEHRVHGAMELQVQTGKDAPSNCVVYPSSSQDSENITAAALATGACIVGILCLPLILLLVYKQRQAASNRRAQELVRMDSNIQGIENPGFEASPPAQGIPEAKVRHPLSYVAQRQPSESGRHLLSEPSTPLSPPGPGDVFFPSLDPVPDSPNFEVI

CD163 on human cells (human), sequence (Q86VB7 42-1156): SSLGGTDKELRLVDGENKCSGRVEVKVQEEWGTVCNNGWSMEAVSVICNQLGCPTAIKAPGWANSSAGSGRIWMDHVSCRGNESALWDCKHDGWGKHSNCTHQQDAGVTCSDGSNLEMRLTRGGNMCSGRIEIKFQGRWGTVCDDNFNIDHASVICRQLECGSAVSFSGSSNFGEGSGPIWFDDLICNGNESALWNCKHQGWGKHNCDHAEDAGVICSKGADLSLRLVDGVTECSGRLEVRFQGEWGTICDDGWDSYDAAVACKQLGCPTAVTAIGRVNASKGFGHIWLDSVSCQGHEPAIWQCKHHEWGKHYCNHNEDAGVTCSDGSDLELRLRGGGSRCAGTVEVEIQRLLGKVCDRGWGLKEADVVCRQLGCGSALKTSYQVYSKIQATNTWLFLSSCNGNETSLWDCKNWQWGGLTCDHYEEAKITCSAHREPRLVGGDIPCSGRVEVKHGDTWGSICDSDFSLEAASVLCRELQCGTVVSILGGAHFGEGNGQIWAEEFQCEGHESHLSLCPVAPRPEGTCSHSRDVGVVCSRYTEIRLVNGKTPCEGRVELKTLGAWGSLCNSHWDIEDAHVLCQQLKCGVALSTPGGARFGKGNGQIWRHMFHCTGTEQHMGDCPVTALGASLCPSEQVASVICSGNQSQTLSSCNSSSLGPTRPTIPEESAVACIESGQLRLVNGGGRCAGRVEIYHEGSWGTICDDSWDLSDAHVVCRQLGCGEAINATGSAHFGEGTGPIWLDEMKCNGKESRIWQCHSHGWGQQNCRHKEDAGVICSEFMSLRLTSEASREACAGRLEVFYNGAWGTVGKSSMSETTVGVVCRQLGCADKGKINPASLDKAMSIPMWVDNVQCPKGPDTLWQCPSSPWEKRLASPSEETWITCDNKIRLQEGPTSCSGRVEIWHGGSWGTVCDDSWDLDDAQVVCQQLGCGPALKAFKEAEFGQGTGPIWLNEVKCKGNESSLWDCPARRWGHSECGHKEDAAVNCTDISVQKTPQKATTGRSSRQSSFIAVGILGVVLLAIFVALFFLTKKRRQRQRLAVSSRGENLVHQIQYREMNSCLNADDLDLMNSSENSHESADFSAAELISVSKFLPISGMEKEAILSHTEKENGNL

Substance	antibody binding capacity (ABC) (ABC (molecules per cell)) [1]	antibody binding capacity (ABC) [2]	nonspecific signal at 0 min relative to INX200 (% of MFI) [3]
CD163 Alexa Fluor 647 clone GHI/61 (antibody)	36700	13100 molecules	–
Human IgG1si (antibody)	–	–	5.9%
